Experimental data from article PMC5663958, “DNA Ligase C and Prim-PolC participate in base excision repair in mycobacteria” (Nature Communications, 2017).

Key:
[1] = molecular target: T1, tag-free LigC1 (6xHis-LigC subjected to thrombin digestion) (M. smegmatis, UniProt A0R5T2 1-348); assay: pull-down; FPG-6xHis or 6xHis-MPG bound to Ni-NTA resin in 50 mM Tris pH 8.0, 150 mM NaCl, 1 h at 4 °C; tag-free LigC or BSA added for 2 h; equimolar proteins; eluted with imidazole; SDS-PAGE and Coomassie staining; settings: both partners purified
T1 construct: ATP-dependent DNA ligase C1 of Mycobacterium smegmatis, locus msmeg_6302; same construct as m2 with the tag cut off by thrombin; The methods say 'LigC', the results 'LigC1'; source: E. coli Origami B pLysS, purified; His-tag removed by a standard thrombin digestion; not shown: 6xHis, N-terminal, cleaved
T1 sequence (looked up): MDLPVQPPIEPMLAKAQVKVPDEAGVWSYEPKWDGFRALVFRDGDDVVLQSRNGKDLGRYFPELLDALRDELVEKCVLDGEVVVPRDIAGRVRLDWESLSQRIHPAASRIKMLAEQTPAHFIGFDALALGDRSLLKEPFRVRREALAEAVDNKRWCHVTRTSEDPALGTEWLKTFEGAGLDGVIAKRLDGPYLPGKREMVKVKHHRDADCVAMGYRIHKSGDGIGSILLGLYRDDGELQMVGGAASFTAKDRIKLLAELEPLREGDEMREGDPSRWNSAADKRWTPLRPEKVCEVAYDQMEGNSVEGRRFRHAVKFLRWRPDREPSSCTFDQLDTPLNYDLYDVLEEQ

[2] = molecular target: T2, DNA ligase C1 (LigC1, msmeg_6302), recombinant, His-tagged construct (M. smegmatis, UniProt A0R5T2 1-348); assay: far-Western, overlay or dot blot; recombinant proteins slot-blotted on a membrane (3 μg of the possible interactors, 50 ng of the probed protein), blocked in TBS, 0.05% Tween 20, 5% milk; incubated with 5 μg ml^−1 Prim-PolC or LigC1; detected with Prim-PolC- or LigC1-specific antibodies; settings: both partners purified
T2 construct: ATP-dependent DNA ligase C1 of Mycobacterium smegmatis, locus msmeg_6302; Cloned in pET28; also called 6xHis-LigC; source: E. coli Origami B pLysS, purified (Ni Sepharose, ion exchange, gel filtration)
T2 sequence (looked up): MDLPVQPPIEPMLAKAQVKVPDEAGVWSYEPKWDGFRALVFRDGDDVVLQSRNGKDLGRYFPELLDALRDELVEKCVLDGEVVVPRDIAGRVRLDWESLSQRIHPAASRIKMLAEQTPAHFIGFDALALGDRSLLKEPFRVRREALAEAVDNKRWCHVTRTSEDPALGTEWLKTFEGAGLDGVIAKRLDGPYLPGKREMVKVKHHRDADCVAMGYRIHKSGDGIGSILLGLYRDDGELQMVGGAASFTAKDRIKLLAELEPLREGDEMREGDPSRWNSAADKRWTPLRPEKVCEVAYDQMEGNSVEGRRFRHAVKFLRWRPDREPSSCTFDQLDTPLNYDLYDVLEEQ

binding result [1]: binds
binding result [2]: binds
B1: FPG (MutM) bifunctional glycosylase, recombinant (enzyme, M. smegmatis, UniProt A0QV21 1-285, looked up)
chain: MPELPEVEVVRRGLAEHVTGKTITGVRVHHPRAVRRHEAGPADLTARLLDVRITGTGRRGKYLWLTLDDSAALVVHLGMSGQMLLGPIRDTRHLRIAAVLDDGTALSFVDQRTFGGWQLTEMVTVDGTDVPEPVAHIARDPLDPLFDRDRVVTVLRGKHSEIKRQLLDQTVVSGIGNIYADEALWRTKINGARIAAALPRRRLAELLDAAAEVMTDALGQGGTSFDSLYVNVNGESGYFDRSLDAYGREGEPCRRCGAIMRREKFMNRSSFYCPRCQPRPRVPRV
notes: Bifunctional DNA glycosylase FPG (MutM) of Mycobacterium smegmatis; Cloned in pET28; also called FPG-6xHis; source: E. coli Origami B pLysS, purified (Ni Sepharose, ion exchange, gel filtration); not shown: 6xHis, C-terminal, kept
